# Target: TRF2BH (basic region + TRFH) (UniProt Q15554 45-289)
# Assay: EMSA
# TRF2BH (basic region + TRFH), sequence (Q15554 45-289): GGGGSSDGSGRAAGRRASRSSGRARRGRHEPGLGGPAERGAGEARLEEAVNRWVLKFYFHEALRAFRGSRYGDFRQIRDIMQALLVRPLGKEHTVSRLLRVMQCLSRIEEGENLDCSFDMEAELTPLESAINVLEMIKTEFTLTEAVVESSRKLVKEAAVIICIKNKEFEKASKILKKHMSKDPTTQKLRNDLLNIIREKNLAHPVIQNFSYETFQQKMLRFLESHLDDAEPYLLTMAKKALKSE
binder,measurement,value
TTAGGGTTAGGGTTAGGGTTAGGGTTAGGGTTAGGGTTAGGG (structured_DNA) [T7],binding result,binds

# Reference: PMC2655686
